This is an account of results in patent publication US20260069656A1, “Nutritive Polypeptides and Formulations Thereof, and Methods of Production and Use Thereof” (Axcella Health Inc., priority 2013, published 2026).

The nature of data set [1]: Pancreatin-based in vitro digestion, free amino acids by RP-HPLC.
Procedure: In this method, pancreatin, a mixture of enzymes, is used to simulate intestinal proteases. Specifically, the digestion of polypeptides into amino acids was analyzed by an in vitro Pancreatin-based digestion assay followed by free amino acid analysis using reversed phase HPLC (RP-HPLC). The nutritive polypeptide was added to SGF (0.92 g/L Pepsin (Sigma), 0.03 M NaCl titrated with HCl to pH 1.5) at a final concentration of 4 g/L and incubated at 37° C. for 120 min. After 120 min, Na2CO3 was added to a final concentration of 16 mM to quench the pepsin reaction. […] Time points were sampled from the reaction and quenched by heating to 95° C. for 5 min. Control samples were protease-free.
Analyses were performed using an Agilent 1100 series system. Primary amino acids were derivitized pre-column at room temperature, online, using o-phthalaldehyde (OPA). The OPA-derivatives were separated using the Zorbax Eclipse-AAA 4.6×150 mm, 3.5 μm column at 40° C. The separation gradient transitioned from 100% 40 mM Na2HPO4 pH 7.8 to 65% acetonitrile/methanol/water mixture (45/45/10) over 23 minutes. Analytes were detected by fluorescence at 340 nm Ex/450 nm Em.
Data set [2] in a line: Solubility of proteins (lyophilized/reconstituted or ultrafiltered). As to conditions: produced in E. coli unless otherwise noted.
Procedure: Solubility. […] Protein samples were dried by lyophilization on a FreeZone Freeze Dry System (Labconco) using the manufacturer's standard protocol and then resuspended in buffer to the desired concentration. Centrifugal and tangential ultrafiltration were used to selectively remove buffer from the protein sample until the desired concentration was reached. Centrifugal ultrafiltration of protein solutions was performed by centrifugation (10,000×g) of 10 mg of protein in an Amicon centrifugal filter (Millipore) with a molecular weight cutoff of 3 kDa, 10 kDa, or 30 kDa, depending on the protein size, until the desired contrentration was reached. Ultrafiltration of protein solutions was performed on Hydrosart ultrafiltration cassettes (Sartorius Stedim, Bohemia, NY) with a molecular weight cutoff of 3 kDa, 10 kDa, or 30 kDa, depending on the protein size, at a cross flow rate of 12 L/m2/min. For most processes, transmembrane pressure was maintained at 20 psi and performed until the desired contrentration was reached.
The protein concentration of the above samples was measured by one or a combination of the following methods: Coomassie Plus Protein Assay, absorbance at 280 nm (A280), and total amino acid analysis. Coomassie Plus Protein Assays (Pierce) were performed according to the manufacturer's protocol. Absorbance at 280 nm was measured on a Nanodrop 2000 UV-Vis spectrophotometer. Protein concentration was determined using the A280 value and molar extinction coefficient, which was calculated by primary amino acid sequence using ProtParam (Gasteiger, Elisabeth, et al. The proteomics protocols handbook. Humana Press, 2005. 571-607.). Total amino acids were analyzed by HPLC after acid hydrolysis as described in Henderson, J. W., et al. Agilent Technologies (2010).
Data set [3] in a line: SGF digest of the 168 nutritive polypeptide library, intact protein by LC-MS/MS spectral counts. In kind it is in vitro ADME. As to conditions: proteins detected in the 168 nutritive polypeptide library. Here is the method: Nutritive polypeptide intact half-life determination in a complex mixture. The in vitro intact half-life of multiple polypeptides in a complex mixture was determined using the simulated gastric in vitro digestion described above. Briefly, the 168 nutritive polypeptide library was generated as described herein by cloning, transforming, and expressing a gene library encoding 168 proteins as a single mixture. The recombinantly expressed proteins were purified from host cell proteins by IMAC purification as described herein.
The 168 Protein Library was treated with SGF as described above and the t=0 and t=10 min samples were analyzed for intact protein by LC-MS/MS. To begin, 10 μg of sample was loaded onto a 10% SDS-PAGE gel (Invitrogen) and run approximately 5 cm into the gel. The gel was excised into ten fractions from 100 kD to the dye front and the gel slices were processed by washing with 25 mM ammonium bicarbonate, followed by acetonitrile. Gel fractions were then reduced with 10 mM dithiothreitol at 60° C., followed by alkylation with 50 mM iodoacetamide at room temperature. Finally, the samples were digested with trypsin (Promega) at 37° C. for 4 h and the digestions were quenched with the addition of formic acid. The samples were then analyzed by nano LC/MS/MS using an EasynLC 1000 HPLC system interfaced to a ThermoFisher Q Exactive. Peptides were loaded on a trapping column and eluted over a 75 μm analytical column at 350 nL/min; both columns were packed with PepMap C18 3 μm resin (ThemoFisher). A 1 hour gradient was employed. The mass spectrometer was operated in data-dependent mode, with MS and MS/MS performed in the Orbitrap at 70,000 FWHM resolution and 17,500 FWHM resolution, respectively. The fifteen most abundant ions were selected for MS/MS. Data were searched against an appropriate database using Mascot to identify peptides. Mascot DAT files were parsed into the Scaffold software for validation, filtering and to create a nonredundant list per sample. Data were filtered at 1% protein and peptide false discovery rate (FDR) and requiring at least two unique peptides per protein. A full list of detected proteins and their spectral counts (SpC) was generated and reported as a function of each collected gel fraction. SpC are a count of the number of spectra identified for a given protein and are used as a measure of relative protein abundance (Liu, H. et al., Analytical Chemistry 2004, 76:4193-4201). To calculate the percentage of intact protein remaining at the 10 min time point of the SGF digest the number of SpC representative of intact peptide in the t=10 min sample were divided by the number of SpC representative of intact peptide in the t=0 min sample. The number of SpC representative of intact peptide was defined as the sum of the SpC in the fraction with the highest number of SpC assigned to that protein in the t=0 min sample and the two flanking fractions.

Data set [4] is described as follows: pH solubility screen in Citric Acid / Dibasic Sodium Phosphate buffers. In kind it is physicochemical. In short, it runs like this: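 Protein at final 5 to 30 mg/ml in citrate/phosphate buffer mixtures (8 M urea control) was shaken 10 min at room temperature and turbidity read at A650. After 10 min 1100×g centrifugation, supernatant protein was measured by Bradford, electrophoresis and/or A280, giving the pH range above 80% solubility.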

Data set [5] can be described thus: Thermostability, ProteoStat Thermal Shift Stability Kit, temperature of aggregation. The class given is physicochemical. The following applies: NS = protein not soluble. In short, it runs like this:
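Proteins at ~10 mg/ml in citric acid/dibasic sodium phosphate buffer, pH 2.8 to 7.1, with ProteoStat TS detection reagent. Heated 25 °C to 95 °C at 0.5 °C per 30 sec, fluorescence monitored with a Texas Red filter.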

Data set [6] can be described thus: Intact half-life during simulated gastric fluid (SGF) digestion.
The mark [7] stands for this setting: after 120 min SGF, Pancreatin SIF pH 6.5.
The mark [8] stands for this setting: SGF pH 1.5, pepsin:polypeptide 1:20 w/w, 37° C., produced in E. coli unless otherwise noted.

B1: SEQID-00423: nutritive polypeptide (protein)
chain: VNGTLMQYFEWYTPNDGQHWKRLQNDAEHLSDIGITAVWIPPAYKGLSQSDNGYGPYDLYDLGEFQQKGTVRTKYGTKSELQDAIGSLHSRNVQVYGDVVLNHKAGADATEDVTAVEVNPANRNQETSEEYQIKAWTDFRFPGRGNTYSDFKWHWYHFDGADWDESRKISRIFKFRGEGKAWDWEVSSENGNYDYLMYADVDYDHPDVVAETKKWGIWYANELSLDGFRIDAAKHIKFSFLRDWVQAVRQATGKEMFTVAEYWQNNAGKLENYLNKTSFNQSVFDVPLHFNLQAASSQGGGYDMRRLLDGTVVSRHPEKAVTFVENHDTQPGQSLESTVQTWFKPLAYAFILTRESGYPQVFYGDMYGTKGTSPKEIPSLKDNIEPILKARKEYAYGPQHDYIDHPDVIGWTREGDSSAAKSGLAALITDGPGGSKRMYAGLKNAGETWYDITGNRSDTVKIGSDGWGEFHVNDGSVSIYVQK
modifications: Bacillus Amyloliquefaciens
With B1, the “Free Leu (μM) at 120 min time point of Pancreatin digest” value (from here on “Free Leu (μM) at 120 min time point”) in data set [1] (setting [7]) was determined as 587.1 µM. Further, in data set [2], the Solubility (as a rule, the dissolved amount per volume that the medium holds) is 193 mg/mL.

B2: SEQID-00485: nutritive polypeptide naturally produced in Chickpea, recombinantly expressed in E. coli (protein, listed as Cicer arietinum)
chain: MTKTGYINAAFRSSRNNEAYLFINDKYVLLDYAPGTSNDKVLYGPSFVRDGYKSLAKTIFGTYGIDCSFDTEYNEAFIFYENFCARIDYAPHSDKDKIISGPKKIADMFPFFKGTVFENGIDAAFRSTKGKEVYLFKGDKYARIDYLTNRLVQNIKSISDGFPCLRGTIFEAGMDSAFASHKTNEAYLFKGEYYARINFTPGSTNDIMGGVKKTLDYWPSLRGIIPLE
Regarding B2, the “% Remaining at 10 min” value in data set [3] was 0%. Moreover, in data set [4] (lower pH of range), the “pH Range where Protein is >80% detected as Soluble and A650 <1 OD: Low” value is 4.6. For the same molecule, the “pH Range where Protein is >80% detected as Soluble and A650 <1 OD: Other” value in data set [4] (other pH where soluble) came out at 2.8. Besides, the “pH Range where Protein is >80% detected as Soluble and A650 <1 OD: High” value in data set [4] (upper pH of range) amounted to 7.1. Moreover, the “Tagg pH 5.0” value in data set [5] (pH 5.0) is on record as 31.5. Also, in data set [5] (pH 5.6), the “Tagg pH 5.6” value is on record as 34.5. Besides, the “Tagg pH 6.0” value in data set [5] (pH 6.0) is 36. In addition, the “Tagg pH 6.5” value in data set [5] (pH 6.5) came to 36.5. Besides, the “Tagg (pH 7.1)” value in data set [5] (pH 7.1, heated 25° C. to 95° C.) was determined as 36. Besides, the “SGF Half-life (t½)” value in data set [6] (setting [8]) was 30 s. Moreover, the “Half-life” value in data set [6] (purified proteins, chip electrophoresis, SGF) is 30 s. Further, the “Solubility” value in data set [2] was 99 mg/mL.

B3: SEQID-00425: nutritive polypeptide (protein, listed as Kluyveromyces lactis)
chain: MSCLIPENLRNPKKVHENRLPTRAYYYDQDIFESLNGPWAFALFDAPLDAPDAKNLDWETAKKWSTISVPSHWELQEDWKYGKPIYTNVQYPIPIDIPNPPTVNPTGVYARTFELDSKSIESFEHRLRFEGVDNCYELYVNGQYVGFNKGSRNGAEFDIQKYVSEGENLVVVKVFKWSDSTYIEDQDQWWLSGIYRDVSLLKLPKKAHIEDVRVTTTFVDSQYQDAELSVKVDVQGSSYDHINFTLYEPEDGSKVYDASSLLNEENGNTTFSTKEFISFSTKKNEETAFKINVKAPEHWTAENPTLYKYQLDLIGSDGSVIQSIKHHVGFRQVELKDGNITVNGKDILFRGVNRHDHHPRFGRAVPLDFVVRDLILMKKFNINAVRNSHYPNHPKVYDLFDKLGFWVIDEADLETHGVQEPFNRHTNLEAEYPDTKNKLYDVNAHYLSDNPEYEVAYLDRASQLVLRDVNHPSIIIWSLGNEACYGRNHKAMYKLIKQLDPTRLVHYEGDLNALSADIFSFMYPTFEIMERWRKNHTDENGKFEKPLILCEYGHAMGNGPGSLKEYQELFYKEKFYQGGFIWEWANHGIEFEDVSTADGKLHKAYAYGGDFKEEVHDGVFIMDGLCNSEHNPTPGLVEYKKVIEPVHIKIAHGSVTITNKHDFITTDHLLFIDKDTGKTIDVPSLKPEESVTIPSDTTYVVAVLKDDAGVLKAGHEIAWGQAELPLKVPDFVTETAEKAAKINDGKRYVSVESSGLHFILDKLLGKIESLKVKGKEISSKFEGSSITFWRPPTNNDEPRDFKNWKKYNIDLMKQNIHGVSVEKGSNGSLAVVTVNSRISPVVFYYGFETVQKYTIFANKINLNTSMKLTGEYQPPDFPRVGYEFWLGDSYESFEWLGRGPGESYPDKKESQRFGLYDSKDVEEFVYDYPQENGNHTDTHFLNIKFEGAGKLSIFQKEKPFNFKISDEYGVDEAAHACDVKRYGRHYLRLDHAIHGVGSEACGPAVLDQYRLKAQDFNFEFDLAFE
For B3, the “SGF Half-life (t½)” value in data set [6] (setting [8]) was 18 s. Besides, the “Free Leu (μM) at 120 min time point” value in data set [1] (setting [7]) came to 713.1 µM. Also, the “Solubility” value in data set [2] came out at 190 mg/mL.

B4: Heat-denatured SEQID-00363: SEQID-00363 diluted to 30 g/L in 10% PBS and rapidly heated to 95° C. (protein)
chain: ATLDSWLSNEATVARTAILNNIGADGAWVSGADSGIVVASPSTDNPDYFYTWTRDSGLVLKTLVDLFRNGDTSLLSTIENYISAQAIVQGISNPSGDLSSGAGLGEPKFNVDETAYTGSWGRPQRDGPALRATAMIGFGQWLLDNGYTSTATDIVWPLVRNDLSYVAQYWNQTGYDLWEEVNGSSFFTIAVQHRALVEGSAFATAVGSSCSWCDSQAPEILCYLQSFWTGSFILANFDSSRSGKDANTLLGSIHTFDPEAACDDSTFQPCSPRALANHKEVVDSFRSIYTLNDGLSDSEAVAVGRYPEDTYYNGNPWFLCTLAAAEQLYDALYQWDKQGSLEVTDVSLDFFKALYSDAATGTYSSSSSTYSSIVDAVKTFADGFVSIVETHAASNGSMSEQYDKSDGEQLSARDLTWSYAALLTANNRRNSVVPASWGETSASSVPGTCAATSAIGTYSSVTVTSWPSIVATGGTTTTATPTGSGSVTSTSKTTATASKTSTSTSSTSCTTPTAVAVTFDLTATTTYGENIYLVGSISQLGDWETSDGIALSADKYTSSDPLWYVTVTLPAGESFEYKFIRIESDDSVEWESDPNREYTVPQACGTSTATVTDTWR
modifications: heat-denatured; Aspergillus niger
Regarding B4, the “SGF Half-life (t½)” value in data set [6] (native and modified SEQID-00363, gel electrophoresis) was 1220 s. In data set [1] (native and modified SEQID-00363), the “Free Leu (μM) at 120 min time point” value was determined as 763.5 µM.

B5: SEQID-00341: nutritive polypeptide (protein, listed as Saccharomyces cerevisiae)
chain: MSTSREDSVYLAKLAEQAERYEEMVENMKTVASSGQELSVEERNLLSVAYKNVIGARRASWRIVSSIEQKEESKEKSEHQVELICSYRSKIETELTKISDDILSVLDSHLIPSATTGESKVFYYKMKGDYHRYLAEFSSGDAREKATNASLEAYKTASEIATTELPPTHPIRLGLALNFSVFYYEIQNSPDKACHLAKQAFDDAIAELDTLSEESYKDSTLIMQLLRDNLTLWTSDMSESGQAEDQQQQQQHQQQQPPAAAEGEAPK
modifications: strain ATCC 204508 / S288c
In the case of B5, in data set [6] (setting [8]), the “SGF Half-life (t½)” value was 12 s. The “Free Leu (μM) at 120 min time point” value in data set [1] (setting [7]) came to 1143.5 µM. For the same molecule, the “Solubility” value in data set [2] was determined as 166 mg/mL.

B6: SEQID-00429: nutritive polypeptide (protein, listed as Bacillus licheniformis)
chain: ANLKGTLMQYFEWYMPNDGQHWKRLQNDSAYLAEHGITAVWIPPAYKGTSQADVGYGAYDLYDLGEFHQKGTVRTKYGTKGELQSAIKSLHSRDINVYGDVVINHKGGADATEDVTAVEVDPADRNRVISGEHRIKAWTHFHFPGRGSTYSDFKWHWYHFDGTDWDESRKLNRIYKFQGKAWDWEVSNENGNYDYLMYADIDYDHPDVAAEIKRWGTWYANELQLDGFRLDAVKHIKFSFLRDWVNHVREKTGKEMFTVAEYWQNDLGALENYLNKTNFNHSVFDVPLHYQFHAASTQGGGYDMRKLLNGTVVSKHPLKAVTFVDNHDTQPGQSLESTVQTWFKPLAYAFILTRESGYPQVFYGDMYGTKGDSQREIPALKHKIEPILKARKQYAYGAQHDYFDHHDIVGWTREGDSSVANSGLAALITDGPGGAKRMYVGRQNAGETWHDITGNRSEPVVINSEGWGEFHVNGGSVSIYVQR
As for B6, in data set [6] (setting [8]), the “SGF Half-life (t½)” value was 300 s. For the same molecule, in data set [1] (setting [7]), the “Free Leu (μM) at 120 min time point” value came to 580.7 µM. Besides, in data set [2], the “Solubility” value turned out to be 214 mg/mL.
